Source: the DeepSol protein solubility set

Experiment: soluble on expression in E. coli; label from the status in PepcDB or PDB records

Soluble on expression in E. coli, soluble:
MSLEYARRQALAREGLSAAGLDALIVTGPENIFYLCGQQTPGYYTFQALILPADGDPVFLIRQLEYFNFIANTFISDAVVYQDGEDPLALLVKLIESRGLASRRIAIDKRGWFLPIAVYEALQARLGTIGDGAGVIERFRAIKSPLEVEKLEKAAAYVDEGMRAGLAAVRVGATENDLVSAMLGSAIAAGSEYLGMEPLVSVGPRTGVPHGTWRRRAITDGDPAFLEMAACHDRYHAALMRSAWIGEPPREAVDMMKACQEALQVSLDTIRPGVACEVPHIACQKVIDRAGYTDNFKKRLGYSVGISFAPDWGEGAILSLNTGVKTELQPGMTFHLPPALRIYGRFTVGVSETIVVTETGYRALGSIDRNLLIVEGHHHHHH, MSLFFRDVIGQEEAKYRLIQEVSEGRIPHAQLFCGPEGVGKFPLALAYARYLSCTNRSDTDACGVCPSCVKFNKLVHPDVHFVFPVVKNGRSDDYIVEWRKLVLNNPYFTINHWLNEINAENAQAVIYTKESDEIMKKLSLKSSEGGFKITLLWLPEKMQQACANKLLKLLEEPPEKTIFLLVSEAPDLILQTILSRTQRFNLRKIEEECMAEALQSKYGVQQATSISIAHLANGNFIKALETIHLNEEGHHHHHH, MSLFFTFMRGVVRVILFVINGNAHYENKEKLPKDQNYVLVAPHRTWWEPLYLAVAGSPKKFSFMAKKELFKNPVLRFILKHANAFPVDREKPGPSAIKTPVKILKNSDLSLIMFPSGTRHSSELKGGVALIAKMGRVPIVPSVYQGPLTLKELFKRKKVTVRFGEPIDISDIKKMDKDGLAEVERRMQEAFDQLDKEIDPTFKYESTEEGHHHHHH, MSLFHPEISGEWGAVKGDNIELLLNVDLSNPSPAPILLETIKVKLAGVKIGETKRANIAIFSRKVTIDSIINLDNLTTALINHIKEKEESTVSVYAKLELFDVIPVEYSRDVNFQTDLLSYLKNLRVEPKIYSIGGIPLKTPGIEGMDAKWGRVSNDSIEIIGWLKLYNPNSFPIPVTGLSADLYMNSVNIGKGVILKGTVLQPNSRGEVKVKLVLDVDNFKEAFKTHITNGERSTIRADINLVVKVGGVEYEIPIKDIETTFETDILGSIKFGEGHHHHHH, MSLFQDNPLLAQLKQKIQETLPKKEGTIKASDKGFGFLEVDSKTSYFVPPPYMKKCMHGDKVVAFIRTENEREVAEPSELIEQSLTRFIGRVKLFKGKLNVAPDHPQLKKLSLKAKTKKGLNEADFQEGDWVVAHLVRHPLKGDDGFFVQISHKITDANDKIAPWWVTLAENDLPNSEPAGIDDWQLKDDADLVREDLTALPFVTIDGESTKDMDDALYAQQLPNGDFALTIAIADPTAYITPEDEMDKVARERGFTIYLPGRNIPMLPRDLADELCSLMENQVRPALCCSVTIRKDGVIGDDIRFFAANIKSHARLVYDHVSDWLETGSSEQWQPSEEIAQVVRDLYAFSQARANWRETHAVVFPDRPDYRFELSADNDVVAIHADMRRTANRLVEESMITANICAGKTLQTTFGFGVFNTHAGFKAEKMADVVELMAVNGAPNADAETLATVEGFAALRRWLATQETSYLDNRIRKYQSYSEIGNQPLPHFAMGLDVYATWTSPIRKYGDMINHRLLKAHILGKAPVQTPDETVGEELALHRKHHKIAERNVADWLYARTLADEPAKETRFQAEIFDINRPGMRVRLLENGAMAFIPGALILDNKERIECNGEDGTVLIDKEVVYKLGDVLEIVLTEVNQENRSLVGKPTQVFADLVSETQTSAEQPAEGAENNEPQVEGHHHHHH, MSLFQSDLKLIVFQHGFFGERFVANLMNYPNSCPSYGACGIDGCTQCKEGLYNFSKNIIAVFSMPDPTTMPDFIENAEDFLPKVIPEADIAVAINLHPDVLAVMPEKLKGKVKALIVPVEEPRWCSPGLAKQIREKCDELGLEFAAPKPFCNLRPSEEHPTINRMIEEMRIGYPEFEIELLEDGKAYVRISRSQPCGCAYYIGVKLRGFDFSEVKEGKMRELWNVVAEAHHSYPCTASMERDNEYNETLLHVGGYIARHAVNRALGYEGDEDIPEHIKHIVLEGGSHHHHHH, MSLGASTNWDDHAIIIFGYPETIANSIILHFANFGEILEDFRVIKDFKKLNSKNMSKSPSLTAQKYPIYTGDGWVKLTYKSELSKSRALQENGIIMNGTLIGCVSYSPAALKQLASLKKSEEIINNKTSSQTSLSSKDLSNYRKTEGIFEKAKAKAVTSKVRNAEFKVSKNSTSFKNPRRLEIKDGRSLFLRNRGKIHSGVLSSIESDLKKREQASKSKKSWLNRLNNWLFGWNDLEGHHHHHH, MSLGAYLSSPKTNKESLDGGNLELDPSRYGLSCMQGWRKNMEDAHICYNNLKFNEIEEDVSIYGVFDGHGGPNVSKWISYNFRRIFIRCLKEANAGETGEDDCNGVYSSEELRLFENYYSNDYEDNIAYSCGSTALVAVILKGYLIVANAGDSRAIVCFNGNSLGMSTDHKPHLQTEEARIKKAGGYIANGRVDGNLNLTRAIGDLHYKRDPFLPQKDQKISAFPEITCVTLTPEDEFLFLACDGIWDCKDGQDVVGFVKTRLEKFEEIPDDPNNSLDNTENSEHMNTNNNSDQNEKLKSEEGHHHHHH, MSLGDKKIRIRRTNEQLDKEVISEFEKLVGEFGFGNVNLSALMKAADLEANVFYRRYGSMDNLYDRLAKQYDFWINNTIDISTLNTLGPKKFFAETFKTLFRNLSENSVMQKLLLYEMTTINSTTKRSAETRDVMNLNLITFYENLFAPAKINIKSIASILIGGIYYLILHKECAKICTIDYKTKEGENAFSEGIDFLTDIIFDRLEMYDRDKKAIRQMISDGISESKICKYMGINKNDLKTLLSEGHHHHHH, MSLGEHLEFDEKKIEKIMMIKRSYLNGEISLEEAKIKMQASFDQVTAQEFAICEQYLQKYGISDDVLAERMEEIIEIFDGVLVTTKLNLPSGHPIRTYLDEVDAIRRILGEMREMSKKKFIKNQWAQYYDQLGEINIHFARKQNQLFTALEKKGFDKPSKVMWTLDNNIRDMIKKAKEYLETDQDNAFLEIQDEVIEMVEDMMVKEEEILFPTTMDLLTDEDFIEMRKGDDEIGYCLIDSPLPYGKKENKDTDTSSNNELLKDLANVLQKHGMLTKASNDEVLDVSQGKLTLEQINLLFKHLQVDLSFVDENEIVKFYSDTKHRVFPRSAGVIGREVQNCHPRESVHTVEEIIRAFRAGEHDEAEFWLEMGGKFIYIIYNAVRDEDGNFKGVLEMMQDVTKIRSLTGSQRLLSWGDKEEEPKSKVTEHTGIENEYGITKETIIGDLVKEYPFIKEFLFNLSPKFSKLQNPIVFKTMSSIATVEMISEKGGFEVQDLIDRIVKEIQSRKEGHHHHHH, MSLGIGKEAEVKKSFEKTLSMYPIKNLEDLYDKEGYRDDQFDKNDKGTWIINSEMVIQPNNEDMVAKGMVLYMNRNTKTTNGYYYVDVTKDEDEGKPHDNEKRYPVKMVDNKIIPTKEIKDKNIKKEIENFKFFVQYGNFKDLSKYKDGDISYNPEVPSYSAKYQVTNDDYNVKQLRKRYDIPTNKAPKLLLKGTGNLKGSSVGYKDIEFTFVEKKGENIYFSDSLHLEPSEDKEGHHHHHH, MSLGKFLVEREQMRYPVDVYTGKIQAYPEGKPSAIAKIQVDGELMLTELGLEGDEQAEKKVHGGPDRALCHYPREHYLYWAREFPEQAELFVAPAFGENLSTDGLTESNVYMGDIFRWGEALIQVSQPRSPCYKLNYHFDISDIAQLMQNTGKVGWLYSVIAPGKVSADAPLELVSRVSDVTVQEAAAIAWHMPFDDDQYHRLLSAAGLSKSWTRTMQKRRLSGKIEDFSRRLWGKEGGSHHHHHH, MSLGKMVIGFAHPDFNDMFLGFLLAGVQAYEAEQTNVEVVYVDAENDSDGQIAQVEDLIAQGVDAIMAIPVDLIATEFIVDRAQQAGVPVVLINRDSVEREDAYVGSDSLQAGTIQMEEVAAVLKGKGKIAIMNGQMGHTAQINRTLGNKQVVDQYPGMEVVIEGTGGWSREKGKELMESWIESGQTFDAVVANNDEMAIGAIMAAEEAGIVDELVFAGIDGTPDALDYMSKGKLTISVFQDAKGQGQTGLEQAIKLAKGESAEKMTNIPYETITKRNVDEGHHHHHH, MSLGKPLIALGLEGSANKLGVGIILHDTNGSAKILANVRHTYITPPGQGFLPSDTAKHHRAWIIPLIKQAFAEAKISFKDIDCICFTKGPGIGAPLNSVALCARMLSLIHKKPLVAVNHCIGHIEMGREITGAQNPVVLYVSGGNTQVIAYSEKKYRIFGETLDIAIGNCLDRFARIIGLSNAPSPGYNIMQEAKKGKRFIELPYTVKGMDCSFSGLLSGVEAAATELLDPKNPSSVTKQDLCYSLQETGFAMLVEITERAMAHIRADSVLIVGGVGCNERLQQMMAEMSSDRGADVFSTDERFCIDNGIMIAQAGLLAYKTGDRCAVAESTITQRYRTDDVYISWRDEGHHHHHH, MSLGKTSMIHAIVDQYSHCEWVENSMSANENNLIWIDLEMTGLDPERDRIIEIATLVTDANLNILAEGPTIAVHQSDEQLALMDDWNVRTHTASGLVERVKASTMGDREAELATLEFLKQWVPAGKSPICGNSIGQDRRFLFKYMPELEAYFHYRYLDVSTLKELARRWKPEILDGFTKQGTHQAMDDIRESVAELAYYREHFIKLEGGSHHHHHH

Soluble on expression in E. coli, not soluble:
MSLETYIHEVVAPKLVGRDPLEIDRISKDLTGYLGFRSTGAEMRGNSAVDIGLWDLFGKATNLPIAQLLGGFSRREIRTYNTCAGNTYMRDAKGQQTANYGIGGPRRDYDDLNGFLERADELAEDLLSEGITAMKIWPFDIAAEKSGGQYISGPDLRKALEPFEKIRKRVGDRIDIMVEFHSMWQLTPAIQIARALEPYATFWHEDPIKMDSLSSLKRYAAASRAPLCASETLATRWAFRDLMETDAAGVVMLDLSWCGGISEAKKISTMAEAWHLPVAPHDCTGPVVLAASTHLSLNAPNALVQESVRAYYKTWYADLTTQLPTVTNGMITIPPGAGHGVDLAPDLDRKFEVSRRSSQIEDEGHHHHHH, MSLEYQWGFANISMNYLDWTRSTTHKSGDSSHKDDFAYIELEGGAGYSWGEMYGFFDLENPFNSKTAQPGDNQRYTFKTTGRYYLGDSGFNLYGHIYGTYSLPSAEGNDYSNFHEVNTLYGIGYNATVAGVWMKPFVALHYVDQTYYSGNNGYVVGWVAGYDFTAFDENFSITNWNELEFNRAERYAAGNGGRNGVNGALALWWTPIKQFTTGIQYRYAYNKLGEDFLQDGIVYSIKYNFEGHHHHHH, MSLGKTLFDKLWNRHVIYGKEGEPQLLYVDLHLIHEVTSPQAFEGLRMENRPLRRPDKTFATMDHNVPTEDIFNIQDLVAKKQIEALQTNCEEFGVTLADMGSDRQGIVHMVGPETGLTQPGKVIVCGDSHTATHGAFGAIGFGIGSSEVEHVFATQTIWQQKPKSMGIEINGNLPKGVYAKDIILHLIATYGVAFGTGYAVEYYGETIRNMSMEERMTICNMAIEGGAKMGMMAPDETTFEYVRGREYAPADMDKAISDWKTLQTDPDAEYDLHIKMDASILEPYVTWGTNPEMGVPFSKAFPEIKDMNYERAYEYMGLKPGQTAEEIELGYVFIGSCTNARLSDLEEAARIVKGNKVKNNIRALVVPGSRQVRNAAESIGLDKIFIEAGFEWREPGCSMCLGMNPDQVPDGVHCASTSNRNFEGRQGKGARTHLVSPAMAAAAAINGHFIDIRKEAVISGGNEGHHHHHH
